Key:
[1] = molecular target: SfABCa3 (Spodoptera frugiperda); experiment: cell-based or functional assay
[2] = molecular target: HzABCa7 (Helicoverpa zea); experiment: cell-based or functional assay
[3] = molecular target: SfABCc2 (Spodoptera frugiperda); experiment: cell-based or functional assay
[4] = molecular target: Spodoptera_frugiperda_ABC_transporter (Spodoptera frugiperda); experiment: cell-based or functional assay
[5] = molecular target: T1, Cry3Aa (Bacillus thuringiensis, UniProt P0A379 1-644); experiment: yeast two-hybrid
T1 sequence: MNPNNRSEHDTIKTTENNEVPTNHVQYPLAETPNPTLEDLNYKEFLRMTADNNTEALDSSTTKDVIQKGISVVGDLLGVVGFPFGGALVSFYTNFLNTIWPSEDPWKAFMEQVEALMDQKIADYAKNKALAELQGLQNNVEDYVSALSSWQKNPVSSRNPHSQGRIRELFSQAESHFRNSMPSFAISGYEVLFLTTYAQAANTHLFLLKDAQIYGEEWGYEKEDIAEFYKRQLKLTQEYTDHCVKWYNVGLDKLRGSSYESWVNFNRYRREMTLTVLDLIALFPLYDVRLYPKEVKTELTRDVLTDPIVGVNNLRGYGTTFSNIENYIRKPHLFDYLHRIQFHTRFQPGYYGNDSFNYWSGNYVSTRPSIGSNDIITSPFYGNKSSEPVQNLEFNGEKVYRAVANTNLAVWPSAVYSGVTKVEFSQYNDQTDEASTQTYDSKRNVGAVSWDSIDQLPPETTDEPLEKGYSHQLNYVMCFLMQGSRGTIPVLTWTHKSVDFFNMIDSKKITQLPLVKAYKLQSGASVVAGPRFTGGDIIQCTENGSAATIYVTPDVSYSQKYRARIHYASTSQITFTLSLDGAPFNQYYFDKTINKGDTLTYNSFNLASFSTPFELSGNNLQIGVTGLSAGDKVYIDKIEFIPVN

With “Cry2Ab as used in the Sf9 cytotoxicity assays (ligand)” the Sytox Green Fluresence, treatment (control buffer 5398) [1] was 30600 and the Sytox Green Fluresence, treatment (control buffer 5398) [2] was 55300.

Work on “Cry1Ac as used in the Sf9 cytotoxicity assays (from UniProt P05068 29-623) (ligand)” yielded a Sytox Green Fluresence, treatment (control buffer 645) [3] of 20700 and a Sytox Green Fluresence, treatment (control buffer 645) [4] of 18600.

B1: Aminopeptidase Fragment 5 (receptor)
chain: GFPVVNAVFNGKNVTFSQKRFLYTGNNNTQWYIPVTYRLSNSSSYETFWLAPNSSVTILNNLTDKDWLIVNDDSRGYYRVKYCKRLTQRIQSLLNQNHTQISELNRAQILDDSLNLARAGYIKYSEAFELLEYLKNETSYFPWFTTIKNMDYLVTRLGANTELGKRTNAMILDLISQISANISTTKWEEIDQVTTLKLQRVWADACKRGQASCISETKRLFQALRLNKTSVNPNIRDVVYCNALRNSNNIAADWEFLWNRLLISIHPQEDLYILLSLGCTTHKPYLTRLLDATINSTSVIKLQNLYTVWNSVGSASKEGLDLAFEYFVNNYKKIIEYYPDGISLLSQLANRFTTNAEVTKLQQFADRLEKNSTIRAVANSALTTARQNLQFRARIEDDLNDYFKIDNSGSSV
notes: Yeast two-hybrid construct; also called Aminopeptidase N fragment 5
B1: no binding [5].
